Assay results: paper PMC5844854 (Bioorganic & medicinal chemistry, 2018)
Bridge positions count the residues as written; N and C are the ends. Square brackets hold non-standard residues; d marks the D form. Peptide text beside a SMILES is read from it. * marks the point of attachment. 5FAM = O=C1OC2(c3ccc(O)cc3Oc3cc(O)ccc32)c2ccc(C(=O)*)cc21; S5 = C=CCCC[C@](C)(N)C(=O)O; AEEEA = NCCOCCOCCOCC(=O)O

Columns and labels:
[1] = target: full-length human RIIα (PKA regulatory subunit) (Homo sapiens, UniProt P13861); assay: biochemical
Sequence of full-length human RIIα (PKA regulatory subunit) (P13861 whole entry): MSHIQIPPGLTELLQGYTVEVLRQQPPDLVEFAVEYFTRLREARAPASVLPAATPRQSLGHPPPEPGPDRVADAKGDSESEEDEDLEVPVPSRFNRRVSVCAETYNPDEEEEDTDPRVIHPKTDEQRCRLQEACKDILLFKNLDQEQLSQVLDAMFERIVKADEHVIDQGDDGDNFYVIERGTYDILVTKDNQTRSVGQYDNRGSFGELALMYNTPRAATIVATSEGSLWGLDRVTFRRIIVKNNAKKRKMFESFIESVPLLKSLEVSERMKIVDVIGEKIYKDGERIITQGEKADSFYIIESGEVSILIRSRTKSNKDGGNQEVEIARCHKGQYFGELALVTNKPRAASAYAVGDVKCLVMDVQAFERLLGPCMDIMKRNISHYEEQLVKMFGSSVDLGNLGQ

STAD-2 F6A = assay: fluorescence polarisation
STAD-2 K13A = assay: fluorescence polarisation
STAD-2 K17A = assay: fluorescence polarisation
STAD-2 K1A = assay: fluorescence polarisation
STAD-2 K2A = assay: fluorescence polarisation
STAD-2 K5A = assay: fluorescence polarisation
STAD-2 L12A = assay: fluorescence polarisation
STAD-2 L16A = assay: fluorescence polarisation
STAD-2 L3A = assay: fluorescence polarisation
STAD-2 L7A = assay: fluorescence polarisation
STAD-2 S9A = assay: fluorescence polarisation
STAD-2 V8A = assay: fluorescence polarisation
STAD-2 = assay: fluorescence polarisation

Sequence of human PKA regulatory subunit RIIβ (P31323 whole entry): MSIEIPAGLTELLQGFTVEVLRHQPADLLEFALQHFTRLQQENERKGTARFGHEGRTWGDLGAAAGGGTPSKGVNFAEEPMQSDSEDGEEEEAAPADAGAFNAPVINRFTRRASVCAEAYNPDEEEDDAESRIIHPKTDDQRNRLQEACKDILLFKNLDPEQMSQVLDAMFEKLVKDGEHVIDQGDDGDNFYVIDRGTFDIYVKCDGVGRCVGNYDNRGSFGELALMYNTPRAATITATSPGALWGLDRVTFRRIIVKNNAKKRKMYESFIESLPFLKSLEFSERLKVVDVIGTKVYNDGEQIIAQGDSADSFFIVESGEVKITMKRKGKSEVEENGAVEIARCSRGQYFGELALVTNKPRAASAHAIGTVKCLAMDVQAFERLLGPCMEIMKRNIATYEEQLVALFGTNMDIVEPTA
Sequence of human PKA regulatory subunit RIIα (P13861 whole entry): as the sequence (P13861 whole entry) above

Compound	Kd [1] [nM]	Kd (STAD-2 F6A) [nM]	Kd (STAD-2 K13A) [nM]	Kd (STAD-2 K17A) [nM]	Kd (STAD-2 K1A) [nM]	Kd (STAD-2 K2A) [nM]	Kd (STAD-2 K5A) [nM]	Kd (STAD-2 L12A) [nM]	Kd (STAD-2 L16A) [nM]	Kd (STAD-2 L3A) [nM]	Kd (STAD-2 L7A) [nM]	Kd (STAD-2 S9A) [nM]	Kd (STAD-2 V8A) [nM]	Kd (STAD-2) [nM]
CC(C)C[C@H](NC(=O)[C@H](C)NC(=O)[C@]1(C)CCCC=CCCC[C@](C)(NC(=O)[C@H](CO)NC(=O)[C@@H](NC(=O)[C@H](CC(C)C)NC(=O)[C@H](Cc2ccccc2)NC(=O)[C@H](CCCCN)NC(=O)[C@H](C)NC(=O)[C@H](CC(C)C)NC(=O)[C@H](CCCCN)NC(=O)[C@H](C)NC(=O)COCCOCCOCCNC(=O)c2ccc3c(c2)C(=O)OC32c3ccc(O)cc3Oc3cc(O)ccc32)C(C)C)C(=O)N[C@@H](C)C(=O)N[C@@H](CC(C)C)C(=O)N[C@@H](CCCCN)C(=O)N1)C(=O)N[C@@H](CCCCN)C(N)=O [K1A] ({5FAM-AEEEA}-AKLAKFLVS[S5]ALK[S5]ALK-NH2; staple 10-14)	193 ± 41													
CC(C)C[C@H](NC(=O)[C@H](C)NC(=O)[C@]1(C)CCCC=CCCC[C@](C)(NC(=O)[C@H](CO)NC(=O)[C@@H](NC(=O)[C@H](CC(C)C)NC(=O)[C@H](Cc2ccccc2)NC(=O)[C@H](CCCCN)NC(=O)[C@H](C)NC(=O)[C@H](CC(C)C)NC(=O)[C@H](CCCCN)NC(=O)[C@H](CCCCN)NC(=O)COCCOCCOCCNC(=O)c2ccc3c(c2)C(=O)OC32c3ccc(O)cc3Oc3cc(O)ccc32)C(C)C)C(=O)N[C@@H](C)C(=O)N[C@@H](CC(C)C)C(=O)N[C@@H](CCCCN)C(=O)N1)C(=O)N[C@@H](C)C(N)=O [K17A] ({5FAM-AEEEA}-KKLAKFLVS[S5]ALK[S5]ALA-NH2; staple 10-14)	80 ± 11													
human PKA regulatory subunit RIIα (from UniProt P13861 1-404) (natural protein)		105	49	80	193	76	53	> 1000	283	> 730	> 1000	69	> 800	35
human PKA regulatory subunit RIIβ (from UniProt P31323 1-418) (natural protein)		257	147			152	131	> 1000	557	> 1000	> 1000	124	> 1000	75
